The values below come from publication PMC7382241 (2020).

As a reminder, the Kd is the constant that tells how readily two partners part at equilibrium. A higher Kd goes with lower affinity.

This test has as its target N-terminal AVI-tagged and biotinylated FKBP12 (human, UniProt P62942 1-108, biotin (biotinylated AVI tag)). As to the kind of experiment: SPR.

“And” between values parts separate entries of the source, which are not always exact repeats. Equal entries are not always repeated.

N-terminal AVI-tagged and biotinylated FKBP12, sequence (P62942 whole entry): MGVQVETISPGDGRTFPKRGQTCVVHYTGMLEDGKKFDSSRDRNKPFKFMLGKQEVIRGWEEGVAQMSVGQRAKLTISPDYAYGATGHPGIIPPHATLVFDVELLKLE

B1: CEP250_(11.4) (residues 2,134 to 2,231) (domain or fragment)
chain: MEEQSLKLDSLEPRLQRELERLQAALRQTEAREIEWREKAQDLALSLAQTKASVSSLQEVAMFLQASVLERDSEQQRLQDELELTRRALEKERLHSPG
For B1, the Kd was 32.5 nM and 32.7 nM and 41.2 nM.

B2: recombinant CEP250_(29.2) (residues 1,981 to 2,281) (domain or fragment)
chain: EQHLLEQAELSRSLEASTATLQASLDACQAHSRQLEEALRIQEGEIQDQDLRYQEDVQQLQQALAQRDEELRHQQEREQLLEKSLAQRVQENMIQEKQNLGQEREEEEIRGLHQSVRELQLTLAQKEQEILELRETQQRNNLEALPHSHKTSPMEEQSLKLDSLEPRLQRELERLQAALRQTEAREIEWREKAQDLALSLAQTKASVSSLQEVAMFLQASVLERDSEQQRLQDELELTRRALEKERLHSPGATSTAELGSRGEQGVQLGEVSGVEAEPSPDGMEKQSWRQRLEHLQQAVAR
As for B2, the Kd is 37.6 nM and 23.4 nM and 57.7 nM.
